In US20220177602A1 (MacroGenics, published 2022):

Experiments:
[1] = target: T1, soluble recombinant human FcγRIIIa (human, UniProt P08637 17-208, limits assumed); test: indirect competitive ELISA, FcγRIIIa coated, competitor MGAH22-Bt, against margetuximab Reference Standard; stored 25 ± 2° C., column head 3 months
T1 construct: Coated on the ELISA plate; also called CD16a; Fcγ Receptor subtype IIIa
Method: (§1) Margetuximab contains point mutations in the Fc-domain that enhance the interaction of the margetuximab constant region with some human Fc receptors, in particular the Fcγ Receptor subtype […] (FcγRIIIa), also referred to as CD16a. The potency of the Fc domain is assessed with an indirect competitive enzyme linked immunosorbent assay (ELISA) essentially as described. The quantification of the binding of margetuximab test article Fc to the FcγRIIIa is measured by its ability to compete against the binding of a biotin-labeled margetuximab competitor sample (MGAH22-Bt). To perform the assay, soluble recombinant human FcγRIIIa is coated to the solid phase (96-well assay plates). A dilution series of margetuximab Test Article (TA) in a constant concentration of MGAH22-Bt is allowed to bind to the immobilized FcγRIIIa. A dilution-series of the test article and of the margetuximab Reference Standard is analyzed in this manner on the same assay plate, in order to generate dose-response curves for both the test article and the margetuximab Reference Standard. […] Oxidation of the added AP substrate by the conjugated AP yields a color product that can be measured at 405±10 nm. The intensity (absorbance) of the color signal is measured using a microplate reader. […] Data are fitted to a constrained four-parameter logistic model to describe absorbance signal as a function of margetuximab concentration. […]

[2] = target: T1, soluble recombinant human FcγRIIIa; test: indirect competitive ELISA, FcγRIIIa coated, competitor MGAH22-Bt, against margetuximab Reference Standard; stored 2-8° C., 18 months
Method: as §1

[3] = target: T1, soluble recombinant human FcγRIIIa; test: indirect competitive ELISA, FcγRIIIa coated, competitor MGAH22-Bt, against margetuximab Reference Standard; stored 2-8° C., 3 months
Method: as §1

[4] = target: T1, soluble recombinant human FcγRIIIa; test: indirect competitive ELISA, FcγRIIIa coated, competitor MGAH22-Bt, against margetuximab Reference Standard; stored 2-8° C., 30 months
Method: as §1

[5] = target: T1, soluble recombinant human FcγRIIIa; test: indirect competitive ELISA, FcγRIIIa coated, competitor MGAH22-Bt, against margetuximab Reference Standard; stored 25 ± 2° C., column head 4 months
Method: as §1

[6] = target: T1, soluble recombinant human FcγRIIIa; test: indirect competitive ELISA, FcγRIIIa coated, competitor MGAH22-Bt, against margetuximab Reference Standard; stored 25 ± 2° C., column head 1 month
Method: as §1

[7] = target: T1, soluble recombinant human FcγRIIIa; test: indirect competitive ELISA, FcγRIIIa coated, competitor MGAH22-Bt, against margetuximab Reference Standard; stored 2-8° C., 6 months
Method: as §1

[8] = target: T1, soluble recombinant human FcγRIIIa; test: indirect competitive ELISA, FcγRIIIa coated, competitor MGAH22-Bt, against margetuximab Reference Standard; stored 25 ± 2° C., column head 6 months
Method: as §1

[9] = target: T1, soluble recombinant human FcγRIIIa; test: indirect competitive ELISA, FcγRIIIa coated, competitor MGAH22-Bt, against margetuximab Reference Standard; stored 25 ± 2° C., column head 2 months
Method: as §1

[10] = target: T1, soluble recombinant human FcγRIIIa; test: indirect competitive ELISA, FcγRIIIa coated, competitor MGAH22-Bt, against margetuximab Reference Standard; stored 25 ± 2° C., column head 0 months
Method: as §1

[11] = target: T1, soluble recombinant human FcγRIIIa; test: indirect competitive ELISA, FcγRIIIa coated, competitor MGAH22-Bt, against margetuximab Reference Standard; stored 2-8° C., 24 months
Method: as §1

[12] = target: T1, soluble recombinant human FcγRIIIa; test: indirect competitive ELISA, FcγRIIIa coated, competitor MGAH22-Bt, against margetuximab Reference Standard; stored 2-8° C., 48 months
Method: as §1

[13] = target: T1, soluble recombinant human FcγRIIIa; test: indirect competitive ELISA, FcγRIIIa coated, competitor MGAH22-Bt, against margetuximab Reference Standard; stored 2-8° C., 9 months
Method: as §1

[14] = target: T1, soluble recombinant human FcγRIIIa; test: indirect competitive ELISA, FcγRIIIa coated, competitor MGAH22-Bt, against margetuximab Reference Standard; stored 25 ± 2° C., column head 5 months
Method: as §1

[15] = target: T1, soluble recombinant human FcγRIIIa; test: indirect competitive ELISA, FcγRIIIa coated, competitor MGAH22-Bt, against margetuximab Reference Standard; stored 2-8° C., 33 months
Method: as §1

[16] = target: T1, soluble recombinant human FcγRIIIa; test: indirect competitive ELISA, FcγRIIIa coated, competitor MGAH22-Bt, against margetuximab Reference Standard; stored 2-8° C., 12 months
Method: as §1

[17] = target: T1, soluble recombinant human FcγRIIIa; test: indirect competitive ELISA, FcγRIIIa coated, competitor MGAH22-Bt, against margetuximab Reference Standard; stored 2-8° C., 1 month
Method: as §1

[18] = target: T1, soluble recombinant human FcγRIIIa; test: indirect competitive ELISA, FcγRIIIa coated, competitor MGAH22-Bt, against margetuximab Reference Standard; stored 2-8° C., 36 months
Method: as §1

[19] = target: T1, soluble recombinant human FcγRIIIa; test: indirect competitive ELISA, FcγRIIIa coated, competitor MGAH22-Bt, against margetuximab Reference Standard; stored 2-8° C., 0 months
Method: as §1

T1 sequence (P08637 17-208 limits assumed): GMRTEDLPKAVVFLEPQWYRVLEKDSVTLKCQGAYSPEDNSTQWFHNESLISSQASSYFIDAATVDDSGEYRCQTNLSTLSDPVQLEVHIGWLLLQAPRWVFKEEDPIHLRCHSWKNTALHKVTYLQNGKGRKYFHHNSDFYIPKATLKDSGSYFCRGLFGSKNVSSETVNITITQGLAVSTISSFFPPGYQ

B1: margetuximab (antibody, human IgG1, kappa)
heavy: QVQLQQSGPELVKPGASLKLSCTASGFNIKDTYIHWVKQRPEQGLEWIGRIYPTNGYTRYDPKFQDKATITADTSSNTAYLQVSRLTSEDTAVYYCSRWGGDGFYAMDYWGQGASVTVSSASTKGPSVFPLAPSSKSTSGGTAALGCLVKDYFPEPVTVSWNSGALTSGVHTFPAVLQSSGLYSLSSVVTVPSSSLGTQTYICNVNHKPSNTKVDKRVEPKSCDKTHTCPPCPAPELVGGPSVFLLPPKPKDTLMISRTPEVTCVVVDVSHEDPEVKFNWYVDGVEVHNAKTKPPEEQYNSTLRVVSVLTVLHQDWLNGKEYKCKVSNKALPAPIEKTISKAKGQPREPQVYTLPPSRDELTKNQVSLTCLVKGFYPSDIAVEWESNGQPENNYKTTPLVLDSDGSFFLYSKLTVDKSRWQQGNVFSCSVMHEALHNHYTQKSLSLSPGK
light: DIVMTQSHKFMSTSVGDRVSITCKASQDVNTAVAWYQQKPGHSPKLLIYSASFRYTGVPDRFTGSRSGTDFTFTISSVQAEDLAVYYCQQHYTTPPTFGGGTKVEIKRTVAAPSVFIFPPSDEQLKSGTASVVCLLNNFYPREAKVQWKVDNALQSGNSQESVTEQDSKDSTYSLSSTLTLSKADYEKHKVYACEVTHQGLSSPVTKSFNRGEC
notes: Chimeric Fc-optimized IgG1/kappa monoclonal antibody; Tested as drug product Lot A in the F1 formulation after storage; also called MGAH22; Margetuximab DP Lot A; copies: 2 + 2
- relative potency by FcγRIIIa Binding ELISA (100% x IC50 Reference Standard/IC50 Test Article) [1]: 99%
- relative potency by FcγRIIIa Binding ELISA (100% x IC50 Reference Standard/IC50 Test Article) [2]: 105%
- relative potency by FcγRIIIa Binding ELISA (100% x IC50 Reference Standard/IC50 Test Article) [3]: 92%
- relative potency by FcγRIIIa Binding ELISA (100% x IC50 Reference Standard/IC50 Test Article) [4]: 103%
- relative potency by FcγRIIIa Binding ELISA (100% x IC50 Reference Standard/IC50 Test Article) [5]: 104%
- relative potency by FcγRIIIa Binding ELISA (100% x IC50 Reference Standard/IC50 Test Article) [6]: 82%
- relative potency by FcγRIIIa Binding ELISA (100% x IC50 Reference Standard/IC50 Test Article) [7]: 103%
- relative potency by FcγRIIIa Binding ELISA (100% x IC50 Reference Standard/IC50 Test Article) [8]: 82%
- relative potency by FcγRIIIa Binding ELISA (100% x IC50 Reference Standard/IC50 Test Article) [9]: 100%
- relative potency by FcγRIIIa Binding ELISA (100% x IC50 Reference Standard/IC50 Test Article) [10]: 76%
- relative potency by FcγRIIIa Binding ELISA (100% x IC50 Reference Standard/IC50 Test Article) [11]: 100%
- relative potency by FcγRIIIa Binding ELISA (100% x IC50 Reference Standard/IC50 Test Article) [12]: 101%
- relative potency by FcγRIIIa Binding ELISA (100% x IC50 Reference Standard/IC50 Test Article) [13]: 106%
- relative potency by FcγRIIIa Binding ELISA (100% x IC50 Reference Standard/IC50 Test Article) [14]: 76%
- relative potency by FcγRIIIa Binding ELISA (100% x IC50 Reference Standard/IC50 Test Article) [15]: 107%
- relative potency by FcγRIIIa Binding ELISA (100% x IC50 Reference Standard/IC50 Test Article) [16]: 110%
- relative potency by FcγRIIIa Binding ELISA (100% x IC50 Reference Standard/IC50 Test Article) [17]: 81%
- relative potency by FcγRIIIa Binding ELISA (100% x IC50 Reference Standard/IC50 Test Article) [18]: 107%
- relative potency by FcγRIIIa Binding ELISA (100% x IC50 Reference Standard/IC50 Test Article) [19]: 76%
